From PMC4660579

Molecular target: Drosophila melanogaster glutathione transferase epsilon 6 (Drosophila melanogaster)
Assay: crystal structure; DmGSTE6 at 15-20 mg/ml with 10 mM GSH, 20% PEG3350, 0.2 M sodium thiocyanate, sitting drop vapour diffusion at 288 K; 1.72 Å; homodimer

Substance: Drosophila melanogaster glutathione transferase epsilon 6 (enzyme)
- stoichiometry N: 2
